# Assay results as given in patent US11661676B2, “Cellular high throughput encapsulation for screening or selection” (Universität Zürich, priority 2012, dated 2023).
# B1: wild-type ADRA1A: wild-type alpha 1A adrenergic receptor, parental receptor (protein, UniProt P35348 1-466, looked up)
# Alpha-1A adrenergic receptor: MVFLSGNASDSSNCTQPPAPVNISKAILLGVILGGLILFGVLGNILVILSVACHRHLHSVTHYYIVNLAVADLLLTSTVLPFSAIFEVLGYWAFGRVFCNIWAAVDVLCCTASIMGLCIISIDRYIGVSYPLRYPTIVTQRRGLMALLCVWALSLVISIGPLFGWRQPAPEDETICQINEEPGYVLFSALGSFYLPLAIILVMYCRVYVVAKRESRGLKSGLKTDKSDSEQVTLRIHRKNAPAGGSGMASAKTKTHFSVRLLKFSREKKAAKTLGIVVGCFVLCWLPFFLVMPIGSFFPDFKPSETVFKIVFWLGYLNSCINPIIYPCSSQEFKKAFQNVLRIQCLCRKQSSKHALGYTLHPPSQAVEGQHKDMVRIPVGSRETFYRISKTDGVCEWKFFSSMPRGSARITVSKDQSSCTTARVRSKSFLQVCCCVGPSTPSLDKNHQVPTIKVHTISLSENGEEV
# Test: Thermostability assay of ADRA1A derived clones ([3H]prazosin binding after heat challenge)
# Format: physicochemical
# Details: PBS-E(DCC), no ligand during solubilization, even at 20° C.
# Experimental: Detergent-stable ADRA1A library members were selected with FACS using 200 nM BODIPY FL prazosin. (FIG. 8a) 21 selected clones were expressed individually, solubilized and assayed for ligand binding activity after 3 hours in PBS-E(DCC). (FIG. 8b) The top 4 receptors were solubilized in PBS-E(DCC) for 3 h at 20° C. in the absence of ligand. Solubilized receptors were captured from the supernatant with streptavidin paramagnetic beads at 4° C. for 1 h. ADRA1ADCCA3 (black circles), ADRA1ADCCG4 (grey open squares), ADRA1ADCCD7 (black crosses) or ADRA1ADCCD8 (grey open circles) coated beads were either treated with 20 nM [^3H]prazosin for 1 h before being thermally challenged for 30 min at increasing temperatures or […] treated with 20 nM [^3H]prazosin after heating in the absence of ligand. […] Parallel measurements were taken for every receptor in the presence of 10 μM unlabeled prazosin as a competitor to determine the specific […] signal. Data points are plotted as the mean of duplicate measurements, 100% represents the signal measured after heating at 20° C. for 30 min. Error bars indicate the standard error of the mean.
# For ADRA1A derived clones, expression and sonication was conducted as above, but the pellet was solubilized in PBS-E(DCC) containing 50 mg/ml chicken lysozyme at 20° C. with vigorous shaking for 3 h in the absence of ligand. […]
molecule,measurement,setting,value
B1,ligand binding signal when solubilized in the absence of ligand,,no significant fluorescence signal was obtained
same,ligand binding signal when solubilized in the absence of ligand,listed as ADRA1A,No significant signal could be measured
